From publication PMC5694551, “Kir2.1-Nav1.5 Channel Complexes Are Differently Regulated than Kir2.1 and Nav1.5 Channels Alone” (Frontiers in Physiology, 2017)

Biological target: T1, Nav1.5 channels of rat ventricular myocytes (rat (endogenous in ventricular myocytes), UniProt P15389 1-2019)
T1 construct: Nav1.5 sodium channel alpha subunit, endogenous at the membrane of Sprague-Dawley rat ventricular myocytes; source: endogenous, isolated rat ventricular myocytes (fixed, non-permeabilized)
Assay: proximity ligation; Duolink PLA in fixed, non-permeabilized rat ventricular myocytes; primary antibodies against extracellular domains of Nav1.5 and Kir2.1; buffers without detergents; confocal microscopy; negative control without primary antibodies
Conditions: partners not purified

T1 sequence (P15389 whole entry): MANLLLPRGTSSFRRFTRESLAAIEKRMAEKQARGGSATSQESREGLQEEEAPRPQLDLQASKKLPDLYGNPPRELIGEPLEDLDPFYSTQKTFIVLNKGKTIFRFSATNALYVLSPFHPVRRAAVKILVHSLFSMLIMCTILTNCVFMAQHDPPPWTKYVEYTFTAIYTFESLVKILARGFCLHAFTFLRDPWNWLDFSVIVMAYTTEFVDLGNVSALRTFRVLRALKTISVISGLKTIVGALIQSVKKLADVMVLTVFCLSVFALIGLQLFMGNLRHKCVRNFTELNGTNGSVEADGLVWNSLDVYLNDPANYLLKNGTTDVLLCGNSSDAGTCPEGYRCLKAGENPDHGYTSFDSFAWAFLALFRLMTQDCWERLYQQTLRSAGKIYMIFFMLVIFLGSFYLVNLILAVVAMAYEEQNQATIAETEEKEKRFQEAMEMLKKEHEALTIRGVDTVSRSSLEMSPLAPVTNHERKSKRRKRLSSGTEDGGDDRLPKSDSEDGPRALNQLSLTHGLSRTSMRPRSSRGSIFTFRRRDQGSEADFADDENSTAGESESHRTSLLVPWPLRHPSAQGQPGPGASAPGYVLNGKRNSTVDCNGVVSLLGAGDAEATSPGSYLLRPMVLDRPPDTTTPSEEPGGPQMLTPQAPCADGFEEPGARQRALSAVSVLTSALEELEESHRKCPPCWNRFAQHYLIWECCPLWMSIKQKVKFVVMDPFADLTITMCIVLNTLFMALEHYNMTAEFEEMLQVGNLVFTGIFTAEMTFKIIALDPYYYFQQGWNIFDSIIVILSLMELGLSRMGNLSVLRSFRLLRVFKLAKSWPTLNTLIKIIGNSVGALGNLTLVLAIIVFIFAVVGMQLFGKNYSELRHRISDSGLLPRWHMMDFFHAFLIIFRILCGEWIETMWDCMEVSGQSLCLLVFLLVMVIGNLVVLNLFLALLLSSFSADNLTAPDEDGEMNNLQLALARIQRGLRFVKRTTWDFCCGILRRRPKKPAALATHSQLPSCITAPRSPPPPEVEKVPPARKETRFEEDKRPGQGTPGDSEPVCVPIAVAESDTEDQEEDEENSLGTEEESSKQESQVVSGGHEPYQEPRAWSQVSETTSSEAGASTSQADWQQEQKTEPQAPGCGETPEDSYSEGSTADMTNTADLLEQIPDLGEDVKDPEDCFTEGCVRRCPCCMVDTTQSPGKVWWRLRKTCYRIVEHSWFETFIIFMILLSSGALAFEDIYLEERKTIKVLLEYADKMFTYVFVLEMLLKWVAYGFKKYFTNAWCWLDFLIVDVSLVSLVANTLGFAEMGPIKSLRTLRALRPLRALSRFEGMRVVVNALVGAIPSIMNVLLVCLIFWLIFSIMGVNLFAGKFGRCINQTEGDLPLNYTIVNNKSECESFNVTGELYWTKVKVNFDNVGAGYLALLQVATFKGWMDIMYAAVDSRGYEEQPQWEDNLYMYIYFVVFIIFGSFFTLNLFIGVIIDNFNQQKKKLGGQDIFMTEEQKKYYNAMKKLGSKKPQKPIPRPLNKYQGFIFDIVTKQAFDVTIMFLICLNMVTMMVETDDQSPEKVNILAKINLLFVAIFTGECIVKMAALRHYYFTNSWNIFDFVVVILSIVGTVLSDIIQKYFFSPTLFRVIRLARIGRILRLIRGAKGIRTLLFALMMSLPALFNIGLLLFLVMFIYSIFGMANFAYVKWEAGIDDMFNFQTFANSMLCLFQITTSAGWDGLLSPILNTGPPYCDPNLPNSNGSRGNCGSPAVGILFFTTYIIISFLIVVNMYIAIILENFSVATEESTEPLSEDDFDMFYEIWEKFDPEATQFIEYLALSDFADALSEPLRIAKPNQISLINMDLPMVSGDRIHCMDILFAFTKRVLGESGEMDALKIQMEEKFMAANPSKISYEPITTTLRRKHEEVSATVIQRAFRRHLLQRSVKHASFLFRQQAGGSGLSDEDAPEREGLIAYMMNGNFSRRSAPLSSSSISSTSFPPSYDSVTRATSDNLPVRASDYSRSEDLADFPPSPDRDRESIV

B1: Kir2.1 channels of rat ventricular myocytes (natural protein, rat (endogenous in ventricular myocytes), UniProt Q64273 1-427, looked up)
chain: MGSVRTNRYSIVSSEEDGMKLATMAVANGFGNGKSKVHTRQQCRSRFVKKDGHCNVQFINVGEKGQRYLADIFTTCVDIRWRWMLVIFCLAFVLSWLFFGCVFWLIALLHGDLDASKESKACVSEVNSFTAAFLFSIETQTTIGYGFRCVTDECPIAVFMVVFQSIVGCIIDAFIIGAVMAKMAKPKKRNETLVFSHNAVIAMRDGKLCLMWRVGNLRKSHLVEAHVRAQLLKSRITSEGEYIPLDQIDINVGFDSGIDRIFLVSPITIVHEIDEDSPLYDLSKQDIDNADFEIVVILEGMVEATAMTTQCRSSYLANEILWGHRYEPVLFEEKHCYKVDYSRFHKTYEVPNTPLCSARDLAEKKYILSNANSFCYENEVALTSKEEEDSENGVPESTSTDSPPGIDLHNQASVPLEPRPLRRESEI
notes: Kir2.1 inward rectifier K+ channel, endogenous at the membrane of Sprague-Dawley rat ventricular myocytes; source: endogenous, isolated rat ventricular myocytes (fixed, non-permeabilized)
  fold increase of the PLA fluorescence signal over the negative control (no primary antibodies): ~6.5 fold
